The term Kd denotes the free concentration of one partner at which half of the binding sites on the other are occupied at equilibrium, for simple one-to-one binding.

The experiment addresses human ACE2 extracellular domain (19-615) (human) (UniProt Q9BYF1). The experiment in a line: SPR. On the technique in general: In SPR one partner is held on a chip, and binding of the other changes the refractive index at the surface.

Turning to “RaTG13 RBD (333-526) (from UniProt A0ABF7PLN6 333-526) (domain or fragment; other documents disagree on this pair)”, the dissociation constant (Kd) came to 500 nM.

For the origin of these results see publication PMC7952905.
